To fix the notation:
B1: Azoarcus group I ribozyme (parent)
chain: GUGCCUUGCGCCGGGAAACCACGCAAGGGAUGGUGUCAAAUUCGGCGAAACCUAAGCGCCCGCCCGGGCGUAUGGCAACGCCGAGCCAAGCUUCGGCGCCUGCGCCGAUGAAGGUGUAGAGACUAGACGGCACCCACCUAAGGCAAACGCUAUGGUGAAGGCAUAGUCCAGGGAGUGGCGAAAGUCACACAAACCGG

The source of these data is the RNAGym collection of RNA variant scans (doi:10.1093/molbev/msab373).

This data set covers variants of B1. The experiment in a line: reverse-splicing fitness (ratio to wild type); higher = more active; in vitro selection; Mg2+ level not given. A digest of the protocol:
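An in vitro group I ribozyme library with randomized positions was T7-transcribed and gel-purified. In triplicate, 10 pmol RNA in EPPS pH 7.5 was reacted with 50 pmoles of a 30-nt RNA substrate for 1 h at 37 °C across several added MgCl2 levels (1–48 mM), then stopped with EDTA. Products were reverse transcribed from a substrate-complementary primer, PCR-amplified and sequenced (HiSeq 4000). Fitness is a variant's read proportion after selection over that before, normalised to wild type.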
As to GUGCCUUGCGCCGGGAAACCACGCAAGGGAUGGUGUCAAAUUCGGCGAAACCUAAGCGCCCGCCCGGGCGUAUGGCAACGCGGAGCCAAGCUUCGGCGCCUGCGCCGAUGGAGGUGUAGGGACUAGACGGCACCCACCUAAGGCGAACGGUAUGGUGAAGGCAUAGUCCAGGGAGUGGCGAAAGUCACACAAACCGG [C82G A111G A120G A145G C150G], the reverse-splicing fitness amounted to 0.00815.

With GUGCCUUGCGCCGGGAAACCACGCAAGGGAUGGUGUCAAAUUCGGCGAAACCUAAGCGCCCGCCCGGGCGUAUGGCAACGCCGAGCCAAGCUUCGGCGCCUGCGCCGAUGGAGGUGUAGCGACUAGACGGCACCCACCUAAGGCUAACGUUAUGGUGAAGGCAUAGUCUAGGGAGGGGCGAAAGUCACACAAACCGG [A111G A120C A145U C150U C169U U176G], the reverse-splicing fitness came out at 0.00606.

Turning to GUGCCUUGCGCCGGGAAACCACGCAAGGGAUGGUGUCAAAUUCGGCGAAACCUAAGCGCCCGCCCGGGCGUAUGGCAACGCUGAGCCAAGCUUCGGCGCCUGCGCCGAUGGAGGUGUAGUGACUAGACGGCACCCACCUAAGGCGAACGGUAUGGUGAAGGCAUAGUCUAGGGAGAGGCGAAAGUCACACAAACCGG [C82U A111G A120U A145G C150G C169U U176A], the reverse-splicing fitness was 0.00458.

Consider GUGCCUUGCGCCGGGAAACCACGCAAGGGAUGGUGUCAAAUUCGGCGAAACCUAAGCGCCCGCCCGGGCGUAUGGCAACGCUGAGCCAAGCUUCGGCGCCUGCGCCGAUGCAGGUGUAGGGACUAGACGGCACCCACCUAAGGCCAACGAUAUGGUGAAGGCAUAGUCGAGGGAGGGGCGAAAGUCACACAAACCGG [C82U A111C A120G A145C C150A C169G U176G], for which the reverse-splicing fitness is 0.00512.

Turning to GUGCCUUGCGCCGGGAAACCACGCAAGGGAUGGUGUCAAAUUCGGCGAAACCUAAGCGCCCGCCCGGGCGUAUGGCAACGCAGAGCCAAGCUUCGGCGCCUGCGCCGAUGCAGGUGUAGGGACUAGACGGCACCCACCUAAGGCGAACGGUAUGGUGAAGGCAUAGUCUAGGGAGUGGCGAAAGUCACACAAACCGG [C82A A111C A120G A145G C150G C169U], the reverse-splicing fitness stood at 0.00877.

Turning to GUGCCUUGCGCCGGGAAACCACGCAAGGGAUGGUGUCAAAUUCGGCGAAACCUAAGCGCCCGCCCGGGCGUAUGGCAACGCUGAGCCAAGCUUCGGCGCCUGCGCCGAUGGAGGUGUAGGGACUAGACGGCACCCACCUAAGGCGAACGCUAUGGUGAAGGCAUAGUCGAGGGAGGGGCGAAAGUCACACAAACCGG [C82U A111G A120G A145G C169G U176G], the reverse-splicing fitness was 0.00424.

With GUGCCUUGCGCCGGGAAACCACGCAAGGGAUGGUGUCAAAUUCGGCGAAACCUAAGCGCCCGCCCGGGCGUAUGGCAACGCGGAGCCAAGCUUCGGCGCCUGCGCCGAUGGAGGUGUAGUGACUAGACGGCACCCACCUAAGGCUAACGGUAUGGUGAAGGCAUAGUCAAGGGAGAGGCGAAAGUCACACAAACCGG [C82G A111G A120U A145U C150G C169A U176A], the reverse-splicing fitness came to 0.00415.

With GUGCCUUGCGCCGGGAAACCACGCAAGGGAUGGUGUCAAAUUCGGCGAAACCUAAGCGCCCGCCCGGGCGUAUGGCAACGCAGAGCCAAGCUUCGGCGCCUGCGCCGAUGAAGGUGUAGAGACUAGACGGCACCCACCUAAGGCAAACGUUAUGGUGAAGGCAUAGUCUAGGGAGGGGCGAAAGUCACACAAACCGG [C82A C150U C169U U176G], the reverse-splicing fitness came to 0.00577.

As for GUGCCUUGCGCCGGGAAACCACGCAAGGGAUGGUGUCAAAUUCGGCGAAACCUAAGCGCCCGCCCGGGCGUAUGGCAACGCUGAGCCAAGCUUCGGCGCCUGCGCCGAUGUAGGUGUAGGGACUAGACGGCACCCACCUAAGGCAAACGUUAUGGUGAAGGCAUAGUCGAGGGAGAGGCGAAAGUCACACAAACCGG [C82U A111U A120G C150U C169G U176A], the reverse-splicing fitness was determined as 0.0146.

GUGCCUUGCGCCGGGAAACCACGCAAGGGAUGGUGUCAAAUUCGGCGAAACCUAAGCGCCCGCCCGGGCGUAUGGCAACGCAGAGCCAAGCUUCGGCGCCUGCGCCGAUGAAGGUGUAGAGACUAGACGGCACCCACCUAAGGCGAACGAUAUGGUGAAGGCAUAGUCUAGGGAGGGGCGAAAGUCACACAAACCGG [C82A A145G C150A C169U U176G]: the reverse-splicing fitness was 0.00699.

For GUGCCUUGCGCCGGGAAACCACGCAAGGGAUGGUGUCAAAUUCGGCGAAACCUAAGCGCCCGCCCGGGCGUAUGGCAACGCGGAGCCAAGCUUCGGCGCCUGCGCCGAUGCAGGUGUAGAGACUAGACGGCACCCACCUAAGGCUAACGCUAUGGUGAAGGCAUAGUCUAGGGAGUGGCGAAAGUCACACAAACCGG [C82G A111C A145U C169U], the reverse-splicing fitness worked out at 0.0133.

For GUGCCUUGCGCCGGGAAACCACGCAAGGGAUGGUGUCAAAUUCGGCGAAACCUAAGCGCCCGCCCGGGCGUAUGGCAACGCCGAGCCAAGCUUCGGCGCCUGCGCCGAUGCAGGUGUAGCGACUAGACGGCACCCACCUAAGGCGAACGCUAUGGUGAAGGCAUAGUCCAGGGAGAGGCGAAAGUCACACAAACCGG [A111C A120C A145G U176A], the reverse-splicing fitness was 0.19.

Regarding GUGCCUUGCGCCGGGAAACCACGCAAGGGAUGGUGUCAAAUUCGGCGAAACCUAAGCGCCCGCCCGGGCGUAUGGCAACGCCGAGCCAAGCUUCGGCGCCUGCGCCGAUGGAGGUGUAGCGACUAGACGGCACCCACCUAAGGCCAACGGUAUGGUGAAGGCAUAGUCCAGGGAGUGGCGAAAGUCACACAAACCGG [A111G A120C A145C C150G], the reverse-splicing fitness was 0.136.

GUGCCUUGCGCCGGGAAACCACGCAAGGGAUGGUGUCAAAUUCGGCGAAACCUAAGCGCCCGCCCGGGCGUAUGGCAACGCCGAGCCAAGCUUCGGCGCCUGCGCCGAUGAAGGUGUAGAGACUAGACGGCACCCACCUAAGGCCAACGAUAUGGUGAAGGCAUAGUCUAGGGAGUGGCGAAAGUCACACAAACCGG [A145C C150A C169U]: the reverse-splicing fitness came out at 0.0286.

Regarding GUGCCUUGCGCCGGGAAACCACGCAAGGGAUGGUGUCAAAUUCGGCGAAACCUAAGCGCCCGCCCGGGCGUAUGGCAACGCAGAGCCAAGCUUCGGCGCCUGCGCCGAUGAAGGUGUAGGGACUAGACGGCACCCACCUAAGGCAAACGUUAUGGUGAAGGCAUAGUCCAGGGAGAGGCGAAAGUCACACAAACCGG [C82A A120G C150U U176A], the reverse-splicing fitness was 0.0125.
